Measurements taken from US20100278838A1, “EPHA2 MONOCLONAL ANTIBODIES AND METHODS OF USE THEREOF” (MEDIMMUNE, LLC, priority 2002, published 2010).
Entries after “also recorded” stand apart in the source; their conditions may differ.

Experiments:
EphA2-Fc = target: T1, EphA2-Fc (Homo sapiens, UniProt P29317); experiment: Competitive ELISA: inhibition of labeled EA2 binding to EphA2-Fc; details: unlabeled antibody, increasing concentrations; FIG. 1
T1 construct: consisted of the extracellular domain of human EphA2 linked to human immunoglobulin
Experimental: The ability of labeled EA2 monoclonal antibody to bind EphA2-Fc was assayed by competitive ELISA in presence of either unlabeled monoclonal antibodies EA2 or Eph099B-208.261. Ratios of unlabeled to labeled antibody used in the assay are indicated on the x-axis. EA2 is indicated by diamonds and Eph099B-208.261 is indicated by squares.
Monoclonal antibodies against the extracellular domain of EphA2 were generated using the fusion protein EphA2-Fc. This fusion protein consisted of the extracellular domain of human EphA2 linked to human immunoglobulin to facilitate secretion of the fusion protein.
Supernatants from bulk culture hybridomas were screened for immunoreactivity against EphA2 (Table 6, column 4) using standard molecular biological techniques (e.g., ELISA immunoassay). Supernatants were further screened for the ability to inhibit an EphA2 monoclonal antibody (EA2; ATCC deposit no. PTA-4380; see co-pending U.S. patent application Ser. No. 10/436,783, entitled “EphA2 Agonistic Monoclonal Antibodies and Methods of Use Thereof' filed May 12, 2003) from binding to EphA2. Briefly, the ability of labeled EA2 to bind EphA2-Fc was assayed by competitive ELISA in presence of either unlabeled EA2 or unlabeled Eph099B-208.261 (FIG. 1). […] Additionally, many of the other antibodies could inhibit EA2 binding to EphA2 as well (Table 6, column 3).

[1] = target: T2, EphA2-Ephrin A1-Fc complex (Homo sapiens, UniProt P29317); experiment: Binding of biotinylated protein to EphA2-Ephrin A1-Fc complex on microtiter plate; details: FIG. 18A
T2 construct: consisting of the extracellular domain of EphA2 linked to human IgG1 constant region
Experimental: FIGS. 18A-18B: EphA2 EA2 epitope is distinct from Eph099B-233.152 epitope and ligand binding site. (A) EphA2-Fc was incubated with and bound to immobilized Ephrin A1-Fc. Labeled Ephrin A1-Fc (black), EA2 (white) or Eph099B-233.152 (grey) was incubated with the EphA2-Ephrin A1-Fc complex and amount of binding was measured. (B) EphA2-Fc was incubated with and bound to immobilized Ephrin A1-Fc. Labeled EA2 was then incubated with the EphA2-Ephrin A1 complex. Unlabeled competitor was incubated with EphA2-Ephrin A1-EA2 complex in the indicated amount. Competitors were Ephrin A1-Fc (black), EA2 (white) or Eph099B-233.152 (grey).
A microtiter plate was coated with […] Ephrin A1-Fc overnight at 4° C. A fusion protein consisting of the extracellular domain of EphA2 linked to human IgG1 constant region (EphA2-Fc) was incubated with and bound to the immobilized Ephrin A1-Fc. Biotinylated Ephrin A1-Fc, EA2, or Eph099B-233.152 was incubated with the EphA2-Ephrin A1-Fc complex and amount of binding was measured.

immobilized EphA2-Fc = target: T3, immobilized EphA2-Fc (Homo sapiens, UniProt P29317); experiment: BIACORE surface plasmon resonance kinetic analysis (Koff); format: binding; details: FIG. 15
T3 construct: consisted of the extracellular domain of human EphA2 linked to human immunoglobulin
Description: FIG. 15: Kinetic analysis of EphA2 monoclonal antibodies. BIACORE™ (surface plasmon resonance-based) assays were used to assay the kinetics of EphA2 monoclonal antibody binding to immobilized EphA2-Fc. Eph099B-208.261 is indicated by a solid line, Eph099B-233.152 is indicated by a dotted line, EA2 is indicated by a dashed line, and the negative control is indicated by squares.
The surface plasmon resonance-based BIACORE™ assay was used to measure the Koff rates of the monoclonal antibodies of the invention. IgG present in the hybridoma supernatant was used for measurement.
EphA2-Fc was immobilize to a surface on a CM5 sensorchip using a standard amine (70 μl of a 1:1 mix of NHS/EDC) coupling chemistry. Briefly, a 400 nM solution of EphA2-Fc in 10 mM NaOAc, pH4, was then injected over the activated surface to a density of 1000-1100 RU's. Unused reactive esters were subsequently “capped” with a 70 μl injection of 1M Et-NH2. Similarly, an activated and “capped” control surface was prepared on the same sensor chip without protein to serve as a reference surface.
A 250 μl injection of each of the EphA2 hybridoma supernatants was made over both the EphA2-Fc and control surfaces, and the binding responses were recorded. These supernatants were used undiluted. Following each injection, at least 10 min. of dissociation phase data was collected. […]

T1 sequence (P29317 24-537 limits assumed): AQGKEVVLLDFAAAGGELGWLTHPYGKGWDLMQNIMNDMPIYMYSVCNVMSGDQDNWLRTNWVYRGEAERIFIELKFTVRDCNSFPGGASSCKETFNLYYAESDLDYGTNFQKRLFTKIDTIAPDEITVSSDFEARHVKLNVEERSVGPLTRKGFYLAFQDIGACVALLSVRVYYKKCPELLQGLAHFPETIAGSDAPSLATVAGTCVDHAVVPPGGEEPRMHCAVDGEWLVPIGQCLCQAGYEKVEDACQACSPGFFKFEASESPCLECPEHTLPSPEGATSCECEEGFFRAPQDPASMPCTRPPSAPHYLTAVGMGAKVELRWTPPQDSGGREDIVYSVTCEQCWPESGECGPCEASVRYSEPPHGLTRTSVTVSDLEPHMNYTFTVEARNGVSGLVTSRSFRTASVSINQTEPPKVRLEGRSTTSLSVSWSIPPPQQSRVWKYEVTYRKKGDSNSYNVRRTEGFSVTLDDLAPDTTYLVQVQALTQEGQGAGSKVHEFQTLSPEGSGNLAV
T2 sequence (P29317 24-537 limits assumed): as above
T2 sequence (P20827 19-182 partner limits assumed): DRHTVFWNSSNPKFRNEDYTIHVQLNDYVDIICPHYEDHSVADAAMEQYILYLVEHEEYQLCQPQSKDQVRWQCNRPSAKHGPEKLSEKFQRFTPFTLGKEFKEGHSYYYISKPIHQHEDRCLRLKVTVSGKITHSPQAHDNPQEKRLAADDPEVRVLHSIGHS
T3 sequence (P29317 24-537 limits assumed): as the sequence (P29317 24-537 limits assumed) above

Row | Molecule | Competition with labeled EA2 for binding to EphA2-Fc (EphA2-Fc) | Amount of binding to EphA2-Ephrin A1-Fc complex [1] | Koff rate compared with EA2 (immobilized EphA2-Fc)
1 | EA2: EphA2 agonistic monoclonal antibody; ATCC deposit no. PTA-4380; co-pending application Ser. No. 10/436,783; VL SEQ ID NO:33, VH SEQ ID NO:37 (antibody, listed as Homo Sapiens, V domains shown) VH: DVKLVESGGGLVKPGGSLKLSCAASGFTFSSYTMSWVRQTPEKRLEWVATISSGGTYTYYPDSVKGRFTISRDNAKNTLYLQMSSLKSEDTAMYYCTREAIFTYWGQGTLVTVSA VL: DIKMTQSPSSMYASLGERVTITCKASQDINNYLSWFQQKPGKSPKTLIYRANRLVDGVPSRFSGSGSGQDYSLTISSLEYEDMGIYYCLKYDEFPYTFGGGTKLEIK | could decrease the amount of labeled EA2 binding to EphA2-Fc | considerable levels | –
2 | Eph099B-233.152: EphA2 monoclonal antibody; hybridoma ATCC PTA-5194; VL SEQ ID NO:17, VH SEQ ID NO:21 (antibody, listed as Homo sapiens, V domains shown) VH: EVKLVESGGGLVQPGGSLSLSCAASGFTFTDYSMNWVRQPPGKALEWLGFIRNKANDYTTEYSASVKGRFTISRDNSQSILYLQMNALRAEDSATYYCVRYPRYHAMDSWGQGTSVTVSS VL: DIVLTQSPATLSVTPGDSVNLSCRASQSISNNLHWYQQKSHESPRLLIKYVFQSISGIPSRFSGSGSGTDFTLSINSVETEDFGMYFCQQSNSWPLTFGAGTKLELK | – | considerable levels | slower Koff rates than EA2
3 | Eph099B-208.261: EphA2 monoclonal antibody; hybridoma ATCC PTA-4573; VL SEQ ID NO:1, VH SEQ ID NO:5 (antibody, listed as Homo sapiens, V domains shown) VH: QVQLQQPGAELVKPGASVKLSCKASGYTFTSYWMHWVKQRPGQGLEWIGMIHPNSGSTNYNEKFKSKATLTVDKSSSTAYMRLSSLTSEDSAVYYCARGGNMVGGGYWGQGTTLTVSS VL: QIVLTQSPALMSASPGEKVTMTCSASSSVSYMYWYQQKPRSSPKPWIYLTTNLASGVPARFSGSGSGTSYSLTISSMEAEDAATYYCQQWSSNPFTFGSGTKLEIR | could decrease the amount of labeled EA2 binding to EphA2-Fc; also recorded: can compete with EA2 for binding to EphA2 | – | slower Koff rates than EA2
